One block for each substance: values may come before it.
Assays:
[1] = molecular target: Streptococcus pyogenes NH3-dependent NAD+ synthetase (spNadE) (Streptococcus pyogenes); assay: SEC
[2] = molecular target: Streptococcus pyogenes NH3-dependent NAD+ synthetase (spNadE) (Streptococcus pyogenes); assay: dynamic light scattering
[3] = molecular target: Streptococcus pyogenes NH3-dependent NAD+ synthetase (spNadE) (Streptococcus pyogenes); assay: crystal structure
[4] = molecular target: Streptococcus pyogenes quinolinate phosphoribosyltransferase (spNadC) (Streptococcus pyogenes); assay: SEC
[5] = molecular target: Streptococcus pyogenes quinolinate phosphoribosyltransferase (spNadC) (Streptococcus pyogenes); assay: dynamic light scattering
[6] = molecular target: spNadC Δ69A deletion mutant (Streptococcus pyogenes); assay: crystal structure

stoichiometry N [1]: 2
stoichiometry N [2]: 2
stoichiometry N [3]: 2
Substance: Streptococcus pyogenes NH3-dependent NAD+ synthetase (spNadE) (enzyme)

stoichiometry N [4]: 6
stoichiometry N [5]: 6
Substance: Streptococcus pyogenes quinolinate phosphoribosyltransferase (spNadC) (enzyme)

Substance: spNadC Δ69A deletion mutant (enzyme)
stoichiometry N [6]: 6
